Test results reported in patent US20100286027A1, “ANTI-BACTERIAL COMPOSITIONS” (priority 2008, published 2010).

Key:
[1] = test system: Bacteroides fragilis NB85001; assay: MIC against anaerobic bacteria; assay type: cell-based
[2] = test system: Eubacterium lentum NB94001; assay: MIC against anaerobic bacteria; assay type: cell-based
[3] = test system: Clostridium perfringens NB95001; assay type: cell-based; conditions: anaerobic
[4] = test system: Clostridium ramosum NB95010; assay: MIC against anaerobic bacteria; assay type: cell-based
[5] = test system: Propionibacterium acnes NB99001; assay: MIC against anaerobic bacteria; assay type: cell-based
[6] = test system: Staphylococcus aureus; assay: Competition assay of Nod2 LRR activity against S. aureus; assay type: cell-based; conditions: then live S. aureus
Protocol: FIG. 6: Purified Nod2 LRR domains (Nod2: 30 microgram/ml) were preincubated with 200 microgram/ml of the indicated bacterial component prior to addition to Staphylococcus aureus. BSA was added as a protein control. Commercial […] extracts (sPGN: soluble […], iPGN: insoluble proteoglycan), lipoteichoic acid (LTA: crude lipoteichoic acid extract, upLTA: ultrapure lipoteichoic acid extract), or heat-killed S. aureus (HKSA) were used. Control indicates bacterial growth in the presence of BSA only.
If this interaction was the initiating factor for the Nod2 LRR antimicrobial effects, preincubating the domains with bacterial components containing this motif would be expected to inhibit the antibacterial activity. A competition assay was set up using Nod2 LRR activity against S. aureus. The recombinant LRR domains or BSA (control) were preincubated with various components of the S. aureus membrane prior to addition to live S. aureus and the bacterial viability assessed as in Table 1 above (FIG. 6).

[7] = test system: Bacillus Subtilis (6633); assay: BacTiter-Glo bacterial ATP content viability assay; conditions: Bacillus Subtilis (6633), gram +; +/− SD, n = 3; >100 = activity detected but <50% inhibition
[8] = test system: Salmonella choleraesuis (13076); assay: BacTiter-Glo bacterial ATP content viability assay; conditions: gram −, +/− SD, n = 3, >100 = activity detected but <50% inhibition
[9] = test system: E. coli; assay: Membrane polarity, DiBAC4 uptake by flow cytometry; conditions: FIG. 11 Panel A; 5×10^5 bacteria in 100 μL, 2 hours at 37° C.

B1: Nod2: purified recombinant LRR domain of Nod2 expressed in E. coli; human NOD2-LRR is SEQ ID NO: 3; ~30000 da (protein, listed as Homo sapiens)
chain: PAAPGEAKSVHAMPGFIWLIRSLYEMQEERLARKAARGLNVGHLKLTFCSVGPTECAALAFVLQHLRRPVALQLDYNSVGDIGVEQLLPCLGVCKALYLRDNNISDRGICKLIECALHCEQLQKLALFNNKLTDGCAHSMAKLLACRQNFLALRLGNNYITAAGAQVLAEGLRGNTSLQFLGFWGNRVGDEGAQALAEALGDHQSLRWLSLVGNNIGSVGAQALALMLAKNVMLEELCLEENHLQDEGVCSLAEGLKKNSSLKILKLSNNCITYLGAEALLQALERNDTILEVWLRGNTFSLEEVDKLGCRDTRLLL
notes: purified recombinant LRR domain of Nod2 expressed in E. coli; ~30000 da
For B1, which “minimal inhibitory concentration (MIC)” value [1] is on record?
The value was 4 microgram/ml.

What about the “minimal inhibitory concentration (MIC)” value [2] of the same molecule?
The value was 8 microgram/ml.

And the “minimal inhibitory concentration (MIC)” value [3]?
Its value is 4 microgram/ml.

And the “minimal inhibitory concentration (MIC)” value [4]?
The value was 4 microgram/ml.

And the “minimal inhibitory concentration (MIC)” value [5]?
Its value is 4 microgram/ml.

What about the “inhibition of antibacterial effect by preincubation with heat-killed S. aureus” value ([6]; Nod2 30 microgram/ml preincubated with 200 microgram/ml HKSA) of the same molecule?
The value was “Only heat-killed S. aureus was capable of inhibiting”.

What about the “inhibition of antibacterial effect by preincubation with proteoglycan or lipoteichoic acid” value ([6]; Nod2 30 microgram/ml preincubated with 200 microgram/ml bacterial component) of the same molecule?
The value was “Neither S. aureus proteoglycan containing the MDP motif, nor lipoteichoic acid inhibited”.

What about the “antibacterial activity by bacterial ATP content (IC50), [LRR domain]” value [7] of the same molecule?
Its value is 3.9 +/− 0.6 microgram/ml.

And the “antibacterial activity by bacterial ATP content (IC50), [LRR domain]” value [8]?
The value was “None detected”.

What about the “membrane polarity of E. coli (depolarised bacteria taking up DiBAC4)” value [9] of the same molecule?
Its value is “influence”.
